Assay results: PMC6443781

Assays:
AP2M1 160-435 [1] = biological target: AP2M1 160-435 (UniProt Q96CW1); assay: isothermal titration calorimetry; details: reference: unphosphorylated peptide YMPMS; sites S616
AP2M1 160-435 [2] = biological target: AP2M1 160-435 (UniProt Q96CW1); assay: peptide-bead pull-down, Coomassie; details: reference: unphosphorylated peptide YMPMS
[3] = biological target: GFP-AP2B1 full length (FL) (UniProt P63010); assay: co-immunoprecipitation (anti-Myc IP, anti-AP2B1 blot, band quantification); details: 293FT cells transfected with GFP-AP2B1 and Myc-BUBR1; n = 3 independent experiments; parent: 1
[4] = biological target: AP2M1 (residues 160–435) (human) (UniProt Q96CW1); assay: ITC; MicroCal ITC200, 20 °C, 25 mM HEPES pH 7.5, 50 mM NaCl; AP2M1 (160–435) 50 µM in the cell, IRS1 peptide (about 0.5 mM) injected

Sequence of UniProt P63010 (P63010 whole entry, the tested form may be a part): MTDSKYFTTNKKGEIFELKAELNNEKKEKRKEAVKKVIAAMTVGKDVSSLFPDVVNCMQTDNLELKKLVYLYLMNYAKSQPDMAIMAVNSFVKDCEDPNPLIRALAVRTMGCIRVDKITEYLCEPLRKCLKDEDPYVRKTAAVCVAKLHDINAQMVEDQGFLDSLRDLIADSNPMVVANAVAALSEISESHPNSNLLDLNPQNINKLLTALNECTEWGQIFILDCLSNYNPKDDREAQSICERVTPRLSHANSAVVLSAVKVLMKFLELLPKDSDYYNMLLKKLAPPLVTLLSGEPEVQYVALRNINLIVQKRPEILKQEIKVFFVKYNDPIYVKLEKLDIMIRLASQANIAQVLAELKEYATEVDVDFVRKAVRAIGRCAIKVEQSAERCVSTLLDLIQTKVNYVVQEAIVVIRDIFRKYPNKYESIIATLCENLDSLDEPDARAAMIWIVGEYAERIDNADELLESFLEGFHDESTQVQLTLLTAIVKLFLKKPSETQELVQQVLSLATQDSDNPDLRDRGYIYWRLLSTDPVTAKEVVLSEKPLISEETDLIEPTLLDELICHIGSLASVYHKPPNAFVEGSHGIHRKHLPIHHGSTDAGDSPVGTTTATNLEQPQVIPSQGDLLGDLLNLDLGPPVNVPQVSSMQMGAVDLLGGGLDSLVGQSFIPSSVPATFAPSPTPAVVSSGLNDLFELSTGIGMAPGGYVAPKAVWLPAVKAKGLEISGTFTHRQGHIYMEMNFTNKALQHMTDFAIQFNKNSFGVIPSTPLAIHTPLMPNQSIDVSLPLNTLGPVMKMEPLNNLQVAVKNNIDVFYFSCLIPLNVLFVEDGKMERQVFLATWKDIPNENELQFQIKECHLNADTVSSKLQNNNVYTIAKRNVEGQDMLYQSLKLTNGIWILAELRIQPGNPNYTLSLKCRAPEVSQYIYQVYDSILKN
Sequence of UniProt Q96CW1 (Q96CW1 160-435): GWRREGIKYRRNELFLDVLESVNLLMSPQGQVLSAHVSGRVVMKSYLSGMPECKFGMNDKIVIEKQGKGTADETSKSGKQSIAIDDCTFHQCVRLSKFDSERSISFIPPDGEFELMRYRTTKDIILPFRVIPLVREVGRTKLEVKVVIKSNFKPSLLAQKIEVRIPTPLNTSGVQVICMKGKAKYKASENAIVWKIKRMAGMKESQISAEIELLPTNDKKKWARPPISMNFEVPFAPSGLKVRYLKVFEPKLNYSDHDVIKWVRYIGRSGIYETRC

Substance	ratio to parent [3]	also measured
IRS1 607-620 (from UniProt P35568) YMPMpS peptide		KD (AP2M1 160-435 [1]): stronger; reference 2.03 µM; binding against the reference (AP2M1 160-435 [2]; sites S616): stronger
IRS1 607-620 (from UniProt P35568) pYMPMS peptide		binding against the reference (AP2M1 160-435 [2]; sites Y612): lost
Myc-BUBR1 full length (WT) (from UniProt O60566) ΔD2	0.72	
Myc-BUBR1 full length (WT) (from UniProt O60566) ΔKEN1	1.31	
Myc-BUBR1 full length (WT) (from UniProt O60566) ΔKEN2	0.94	
Myc-BUBR1 full length (WT) (from UniProt O60566) ΔPhe	0.75	
Myc-BUBR1 full length (WT) (from UniProt O60566) ΔPhe; ΔD2	0.67	
phospho-serine IRS1 peptide (pS-IRS1; YMPMpS)		Kd [4]: 0.28 µM
unphosphorylated IRS1 peptide (YMPMS)		Kd [4]: 2.03 µM
